Data as given in paper doi:10.1101/2021.03.29.437529.

How the values were obtained:
[1] = target: PniDAH7PS, the C-terminal CM-linked 3-deoxy-D-arabino-heptulosonate 7-phosphate synthase (DAH7PS) from Prevotella nigrescens, wild type (Prevotella nigrescens); experiment: SEC-SAXS
[2] = target: PniDAH7PS^Δ5AA, a truncated PniDAH7PS variant with removal of C327-T331 residues (Prevotella nigrescens); experiment: SEC-SAXS

stoichiometry N [1]	stoichiometry N [2]	Substance
2	–	PniDAH7PS, the C-terminal CM-linked 3-deoxy-D-arabino-heptulosonate 7-phosphate synthase (DAH7PS) from Prevotella nigrescens, wild type (enzyme)
–	2	PniDAH7PS^Δ5AA, a truncated PniDAH7PS variant with removal of C327-T331 residues (enzyme)
